In paper PMC8280819 (The EMBO Journal, 2021):

Target: His‐SigH (Mycobacterium tuberculosis, UniProt P9WGH8 1-216)
Assay: BLI

Sequence of His‐SigH (P9WGH8 whole entry): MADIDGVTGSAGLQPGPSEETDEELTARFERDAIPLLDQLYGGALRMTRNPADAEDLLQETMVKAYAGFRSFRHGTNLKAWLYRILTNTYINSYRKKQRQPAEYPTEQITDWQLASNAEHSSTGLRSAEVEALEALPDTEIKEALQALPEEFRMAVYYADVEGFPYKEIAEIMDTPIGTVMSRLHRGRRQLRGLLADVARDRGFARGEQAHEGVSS

B1: His‐AosR (Rv1332, actinomycetes oxidative stress regulator) (natural protein)
chain: MPPVCGRRCSRTGEIRGYSGSIVRRWKRVETRDGPRFRSSLAPHEAALLKNLAGAMIGLLDDRDSSSPSDELEEITGIKTGHAQRPGDPTLRRLLPDFYRPDDLDDDDPTAVDGSESFNAALRSLHEPEIIDAKRVAAQQLLDTVPDNGGRLELTESDANAWIAAVNDLRLALGVMLEIGPRGPERLPGNHPLAAHFNVYQWLTVLQEYLVLVLMGSR
  response, fold over reducing conditions: 3 fold
